Laboratory results reported in paper PMC2173217 (The Journal of Cell Biology, 2002).
Where two headings read alike, the source gives them in different places.

B1: Sec23/24p (complex, S. cerevisiae)
chain 1: MDFETNEDINGVRFTWNVFPSTRSDANSNVVPVGCLYTPLKEYDELNVAPYNPVVCSGPHCKSILNPYCVIDPRNSSWSCPICNSRNHLPPQYTNLSQENMPLELQSTTIEYITNKPVTVPPIFFFVVDLTSETENLDSLKESIITSLSLLPPNALIGLITYGNVVQLHDLSSETIDRCNVFRGDREYQLEALTEMLTGQKPTGPGGAASHLPNAMNKVTPFSLNRFFLPLEQVEFKLNQLLENLSPDQWSVPAGHRPLRATGSALNIASLLLQGCYKNIPARIILFASGPGTVAPGLIVNSELKDPLRSHHDIDSDHAQHYKKACKFYNQIAQRVAANGHTVDIFAGCYDQIGMSEMKQLTDSTGGVLLLTDAFSTAIFKQSYLRLFAKDEEGYLKMAFNGNMAVKTSKDLKVQGLIGHASAVKKTDANNISESEIGIGATSTWKMASLSPYHSYAIFFEIANTAANSNPMMSAPGSADRPHLAYTQFITTYQHSSGTNRIRVTTVANQLLPFGTPAIAASFDQEAAAVLMARIAVHKAETDDGADVIRWLDRTLIKLCQKYADYNKDDPQSFRLAPNFSLYPQFTYYLRRSQFLSVFNNSPDETAFYRHIFTREDTTNSLIMIQPTLTSFSMEDDPQPVLLDSISVKPNTILLLDTFFFILIYHGEQIAQWRKAGYQDDPQYADFKALLEEPKLEAAELLVDRFPLPRFIDTEAGGSQARFLLSKLNPSDNYQDMARGGSTIVLTDDVSLQNFMTHLQQVAVSGQA
chain 2: MSHHKKRVYPQAQLQYGQNATPLQQPAQFMPPQDPAAAGMSYGQMGMPPQGAVPSMGQQQFLTPAQEQLHQQIDQATTSMNDMHLHNVPLVDPNAYMQPQVPVQMGTPLQQQQQPMAAPAYGQPSAAMGQNMRPMNQLYPIDLLTELPPPITDLTLPPPPLVIPPERMLVPSELSNASPDYIRSTLNAVPKNSSLLKKSKLPFGLVIRPYQHLYDDIDPPPLNEDGLIVRCRRCRSYMNPFVTFIEQGRRWRCNFCRLANDVPMQMDQSDPNDPKSRYDRNEIKCAVMEYMAPKEYTLRQPPPATYCFLIDVSQSSIKSGLLATTINTLLQNLDSIPNHDERTRISILCVDNAIHYFKIPLDSENNEESADQINMMDIADLEEPFLPRPNSMVVSLKACRQNIETLLTKIPQIFQSNLITNFALGPALKSAYHLIGGVGGKIIVVSGTLPNLGIGKLQRRNESGVVNTSKETAQLLSCQDSFYKNFTIDCSKVQITVDLFLASEDYMDVASLSNLSRFTAGQTHFYPGFSGKNPNDIVKFSTEFAKHISMDFCMETVMRARGSTGLRMSRFYGHFFNRSSDLCAFSTMPRDQSYLFEVNVDESIMADYCYVQVAVLLSLNNSQRRIRIITLAMPTTESLAEVYASADQLAIASFYNSKAVEKALNSSLDDARVLINKSVQDILATYKKEIVVSNTAGGAPLRLCANLRMFPLLMHSLTKHMAFRSGIVPSDHRASALNNLESLPLKYLIKNIYPDVYSLHDMADEAGLPVQTEDGEATGTIVLPQPINATSSLFERYGLYLIDNGNELFLWMGGDAVPALVFDVFGTQDIFDIPIGKQEIPVVENSEFNQRVRNIINQLRNHDDVITYQSLYIVRGASLSEPVNHASAREVATLRLWASSTLVEDKILNNESYREFLQIMKARISK
B2: Sar1p (enzyme)
chain: not shown
B3: Sec13/31p (complex, S. cerevisiae)
chain 1: MVVIANAHNELIHDAVLDYYGKRLATCSSDKTIKIFEVEGETHKLIDTLTGHEGPVWRVDWAHPKFGTILASCSYDGKVLIWKEENGRWSQIAVHAVHSASVNSVQWAPHEYGPLLLVASSDGKVSVVEFKENGTTSPIIIDAHAIGVNSASWAPATIEEDGEHNGTKESRKFVTGGADNLVKIWKYNSDAQTYVLESTLEGHSDWVRDVAWSPTVLLRSYLASVSQDRTCIIWTQDNEQGPWKKTLLKEEKFPDVLWRASWSLSGNVLALSGGDNKVTLWKENLEGKWEPAGEVHQ
chain 2: MVKLAEFSRTATFAWSHDKIPLLVSGTVSGTVDANFSTDSSLELWSLLAADSEKPIASLQVDSKFNDLDWSHNNKIIAGALDNGSLELYSTNEANNAINSMARFSNHSSSVKTVKFNAKQDNVLASGGNNGEIFIWDMNKCTESPSNYTPLTPGQSMSSVDEVISLAWNQSLAHVFASAGSSNFASIWDLKAKKEVIHLSYTSPNSGIKQQLSVVEWHPKNSTRVATATGSDNDPSILIWDLRNANTPLQTLNQGHQKGILSLDWCHQDEHLLLSSGRDNTVLLWNPESAEQLSQFPARGNWCFKTKFAPEAPDLFACASFDNKIEVQTLQNLTNTLDEQETETKQQESETDFWNNVSREESKEKPTVFHLQAPTWYGEPSPAAHWAFGGKLVQITPDGKGVSITNPKISGLESNTTLSEALKTKDFKPLINQRLVKVIDDVNEEDWNLLEKLSMDGTEEFLKEALAFDNDESDAQDDANNEKEDDGEEFFQQIETNFQPEGDFSLSGNIEQTISKNLVSGNIKSAVKNSLENDLLMEAMVIALDSNNERLKESVKNAYFAKYGSKSSLSRILYSISKREVDDLVENLDVSQWKFISKAIQNLYPNDIAQRNEMLIKLGDRLKENGHRQDSLTLYLAAGSLDKVASIWLSEFPDLEDKLKKDNKTIYEAHSECLTEFIERFTVFSNFINGSSTINNEQLIAKFLEFINLTTSTGNFELATEFLNSLPSDNEEVKTEKARVLIASGKSLPAQNPATATTSKAKYTNAKTNKNVPVLPTPGMPSTTSIPSMQAPFYGMTPGASANALPPKPYVPATTTSAPVHTEGKYAPPSQPSMASPFVNKTNSSTRLNSFAPPPNPYATATVPATNVSTTSIPQNTFAPIQPGMPIMGDYNAQSSSIPSQPPINAVSGQTPHLNRKANDGWNDLPLKVKEKPSRAKAVSVAPPNILSTPTPLNGIPANAASTMPPPPLSRAPSSVSMVSPPPLHKNSRVPSLVATSESPRASISNPYAPPQSSQQFPIGTISTANQTSNTAQVASSNPYAPPPQQRVATPLSGGVPPAPLPKASNPYAPTATTQPNGSSYPPTGPYTNNHTMTSPPPVFNKPPTGPPPISMKKRSNKLASIEQNPSQGATYPPTLSSSASPLQPSQPPTLASQVNTSAENVSHEIPADQQPIVDFLKEELARVTPLTPKEYSKQLKDCDKRLKILFYHLEKQDLLTQPTIDCLHDLVALMKEKKYKEAMVIHANIATNHAQEGGNWLTGVKRLIGIAEATLN

Legend:
Test in all cases: liposome flotation
[1] = target: T1, MBP–Sec16p (S. cerevisiae, UniProt P48415 1-2195)
[2] = target: T1, MBP–Sec16p; remark: listed apart in the source
[3] = target: B1

T1 sequence (P48415 whole entry): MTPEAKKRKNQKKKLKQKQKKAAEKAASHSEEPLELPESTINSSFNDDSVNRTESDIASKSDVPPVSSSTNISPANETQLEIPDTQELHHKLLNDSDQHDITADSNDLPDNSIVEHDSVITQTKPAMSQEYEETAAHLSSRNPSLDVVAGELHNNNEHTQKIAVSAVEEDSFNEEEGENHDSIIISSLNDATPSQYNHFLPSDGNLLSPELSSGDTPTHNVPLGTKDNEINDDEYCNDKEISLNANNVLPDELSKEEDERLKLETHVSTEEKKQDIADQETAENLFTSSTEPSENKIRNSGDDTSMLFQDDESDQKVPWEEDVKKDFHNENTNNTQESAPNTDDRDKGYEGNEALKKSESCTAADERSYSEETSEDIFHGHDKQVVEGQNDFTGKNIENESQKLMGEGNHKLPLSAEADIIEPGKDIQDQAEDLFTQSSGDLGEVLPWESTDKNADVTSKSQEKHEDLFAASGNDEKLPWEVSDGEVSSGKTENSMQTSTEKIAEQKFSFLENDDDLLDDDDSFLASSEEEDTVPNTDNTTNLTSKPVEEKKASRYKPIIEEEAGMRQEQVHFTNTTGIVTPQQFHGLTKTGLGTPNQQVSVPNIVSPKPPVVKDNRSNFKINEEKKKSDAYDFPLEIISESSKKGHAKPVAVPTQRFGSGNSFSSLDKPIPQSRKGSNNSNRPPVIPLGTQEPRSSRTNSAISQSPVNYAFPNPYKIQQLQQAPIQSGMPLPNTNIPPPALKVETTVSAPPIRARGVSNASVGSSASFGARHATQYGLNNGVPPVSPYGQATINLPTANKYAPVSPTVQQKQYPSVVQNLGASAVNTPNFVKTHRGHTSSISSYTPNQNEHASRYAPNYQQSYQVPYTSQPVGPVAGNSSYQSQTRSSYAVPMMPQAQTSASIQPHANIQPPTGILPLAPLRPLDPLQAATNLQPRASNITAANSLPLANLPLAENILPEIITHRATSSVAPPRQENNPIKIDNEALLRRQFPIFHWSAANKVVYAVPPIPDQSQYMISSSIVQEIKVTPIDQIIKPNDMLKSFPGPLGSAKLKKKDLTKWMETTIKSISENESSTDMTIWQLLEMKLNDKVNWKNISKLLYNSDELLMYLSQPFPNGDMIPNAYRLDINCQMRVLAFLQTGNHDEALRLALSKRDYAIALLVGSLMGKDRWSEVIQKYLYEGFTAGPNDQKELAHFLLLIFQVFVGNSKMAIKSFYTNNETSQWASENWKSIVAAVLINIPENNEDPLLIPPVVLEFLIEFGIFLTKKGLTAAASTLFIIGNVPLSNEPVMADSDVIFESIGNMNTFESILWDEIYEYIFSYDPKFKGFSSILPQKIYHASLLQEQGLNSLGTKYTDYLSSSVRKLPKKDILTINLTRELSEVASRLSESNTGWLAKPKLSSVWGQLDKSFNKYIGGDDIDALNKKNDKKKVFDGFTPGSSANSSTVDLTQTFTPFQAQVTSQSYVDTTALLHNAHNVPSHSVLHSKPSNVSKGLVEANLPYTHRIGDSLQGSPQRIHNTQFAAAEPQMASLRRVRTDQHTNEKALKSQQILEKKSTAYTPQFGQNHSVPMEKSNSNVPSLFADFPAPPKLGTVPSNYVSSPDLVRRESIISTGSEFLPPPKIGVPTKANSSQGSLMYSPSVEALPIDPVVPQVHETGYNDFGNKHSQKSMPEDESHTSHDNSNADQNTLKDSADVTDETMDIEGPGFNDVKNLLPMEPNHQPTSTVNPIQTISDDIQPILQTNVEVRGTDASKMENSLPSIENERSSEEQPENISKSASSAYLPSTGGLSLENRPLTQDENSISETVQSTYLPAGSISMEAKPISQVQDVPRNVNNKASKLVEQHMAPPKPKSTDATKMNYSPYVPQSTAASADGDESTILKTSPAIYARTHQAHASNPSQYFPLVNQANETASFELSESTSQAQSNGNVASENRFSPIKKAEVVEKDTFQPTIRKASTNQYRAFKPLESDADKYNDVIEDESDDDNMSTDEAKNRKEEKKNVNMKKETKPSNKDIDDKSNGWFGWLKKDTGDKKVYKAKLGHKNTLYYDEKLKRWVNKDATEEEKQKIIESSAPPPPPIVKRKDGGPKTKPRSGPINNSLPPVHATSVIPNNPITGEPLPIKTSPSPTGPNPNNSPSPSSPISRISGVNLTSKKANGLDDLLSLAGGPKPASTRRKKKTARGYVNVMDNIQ

B1
binding result [1]: binds

B2
binding result [2]: binds

B3
binding result [3]: binds
